The source of these data is patent CN116143933A (BEIJING ZHIREN MEIBO BIOTECHNOLOGY CO LTD, dated 2023).

As a reminder, the Kd is the free concentration of one partner at which half of the binding sites on the other are occupied at equilibrium, for simple one-to-one binding.

The target in one assay is T1, 人CD38胞外区-His (hCD38-His) (human (homo sapiens), UniProt P28907 43-300).
T1 construct: Recombinant, expressed in HEK293 cells; also called 人CD38-His; not shown: His tag at the C-terminus
Nature of the assay: SPR (Biacore X100), antibody captured by anti-human Fc, human CD38-His as analyte, 25°C. (Surface plasmon resonance follows binding to a sensor surface in real time, without labels.)

Assay [1] deals with T2, 食蟹猴CD38胞外区-His (mfCD38-His) (cynomolgus monkey (Macaca fascicularis), UniProt Q5VAN0 44-301).
T2 construct: Recombinant, expressed in HEK293 cells; not shown: His tag at the C-terminus
Nature of the assay: ELISA, mfCD38-His coated at 1.5 μg/ml, HRP mouse anti-human IgG.

B1: S5A10h1cross+S5B8h2 (bispecific antibody, human IgG1, kappa)
heavy 1: QVQLVQSGAEVKKPGASVKVSCKASGYAFTNSWMHWVRQAPGQGLEWMGEIHPQSGRTNYNEKFKGRVTMTRDTSTSTVYMELSSLRSEDTAVYYCARDLLQFGNQYYYAMDYWGQGTLVTVSSASTKGPSVFPLAPSSKSTSEGTAALGCLVKDYFPEPVTVSWNSGALTSGVHTFPAVLQSSGLYSLSSVVTVPSSSLGTQTYICNVDHKPSNTKVDKTVEPKSCDKTHTCPPCPAPELLGGPSVFLFPPKPKDTLMISRTPEVTCVVVDVSQEDPEVQFNWYVDGVEVHNAKTKPREEQYNSTYRVVSVLTVLHQDWLNGKEYKCKVSNKALPAPIEKTISKAKGQPREPQVCTLPPSQEEMTKNQVSLSCAVKGFYPSDIAVEWESNGQPENNYKTTPPVLDSDGSFFLVSKLTVDKSRWQEGNVFSCSVMHEALHNHYTQKSLSLSPGK
light 1: DIVMTQTPLSLPVTPGEPASISCRSSQSLVHSNGNTYLHWYLQKPGQSPQLLIYKVSNRFSGVPDRFSGSGSGTDFTLKISRVEAEDVGVYYCSQSTHVPLTFGQGTKLEIKRTVAAPSVFIFPPSDEQLKSGTASVVCLLNNFYPREAKVQWKVDNALQSGNSQESVTEQDSKDSTYSLSSTLTLSKADYEKHKVYACEVTHQGLSSPVTKSFNRGEC
heavy 2: not shown
light 2: DIQMTQSPSSLSASVGDRVTITCRASENIYSYLAWYQQKPGKAPKLLIYNAKTLAEGVPSRFSGSGSGTDFTLTISSLQPEDFATYYCQHHYGTPYTFGQGTKLEIKSSASTKGPSVFPLAPSSKSTSGGTAALGCLVKDYFPEPVTVSWNSGALTSGVHTFPAVLQSSGLYSLSSVVTVPSSSLGTQTYICNVNHKPSNTKVDKRVEPKSC
notes: Knob-into-hole plus CrossMab format, four chains
In the assay with 人CD38胞外区-His (hCD38-His), B1 came in with an equilibrium dissociation constant (Kd) of 0.0216 nM. In addition, the binding result in assay [1] is recorded as “binds”.

B2: S5A10h1 (antibody, V domains shown)
VH: QVQLVQSGAEVKKPGSSVKVSCKASDYPFISYTIHWVRQAPGQGLEWMGYINPSNGYTNYNQKFKDRVTITADKSTSTAYMELSSLRSEDTAVYYCARKYGNFYAMDYWGQGTLVTVSS
VL: DIQMTQSPSSLSASVGDRVTITCRASENIYSYLAWYQQKPGKAPKLLIYNAKTLAEGVPSRFSGSGSGTDFTLTISSLQPEDFATYYCQHHYGTPYTFGQGTKLEIK
notes: Made as a whole antibody of the IgG1 subtype; only variable domains are tied to it; also called 单克隆抗体S5A10h1
In the assay with 人CD38胞外区-His (hCD38-His), B2 displayed a Kd of 1.33 nM.

B3: S5A10h1Fab+S5B8h2ScFv (bispecific antibody, human IgG1, kappa)
chain: DIVMTQTPLSLPVTPGEPASISCRSSQSLVHSNGNTYLHWYLQKPGQSPQLLIYKVSNRFSGVPDRFSGSGSGTDFTLKISRVEAEDVGVYYCSQSTHVPLTFGQGTKLEIKGGGGSGGGGSGGGGSQVQLVQSGAEVKKPGASVKVSCKASGYAFTNSWMHWVRQAPGQGLEWMGEIHPQSGRTNYNEKFKGRVTMTRDTSTSTVYMELSSLRSEDTAVYYCARDLLQFGNQYYYAMDYWGQGTLVTVSSEPKSSDKTHTCPPCPAPELLGGPSVFLFPPKPKDTLMISRTPEVTCVVVDVSQEDPEVQFNWYVDGVEVHNAKTKPREEQYNSTYRVVSVLTVLHQDWLNGKEYKCKVSNKALPAPIEKTISKAKGQPREPQVCTLPPSQEEMTKNQVSLSCAVKGFYPSDIAVEWESNGQPENNYKTTPPVLDSDGSFFLVSKLTVDKSRWQEGNVFSCSVMHEALHNHYTQKSLSLSPGK
heavy: not shown
light: DIQMTQSPSSLSASVGDRVTITCRASENIYSYLAWYQQKPGKAPKLLIYNAKTLAEGVPSRFSGSGSGTDFTLTISSLQPEDFATYYCQHHYGTPYTFGQGTKLEIKRTVAAPSVFIFPPSDEQLKSGTASVVCLLNNFYPREAKVQWKVDNALQSGNSQESVTEQDSKDSTYSLSSTLTLSKADYEKHKVYACEVTHQGLSSPVTKSFNRGEC
notes: Fab-FcK/scFv-FcH knob-into-hole format, three chains
B3: binding with 人CD38胞外区-His (hCD38-His) was put at a Kd of 0.151 nM. Moreover, the binding result in assay [1] is “binds”.

B4: S5B8h2 (antibody, IgG1, V domains shown)
VH: QVQLVQSGAEVKKPGASVKVSCKASGYAFTNSWMHWVRQAPGQGLEWMGEIHPQSGRTNYNEKFKGRVTMTRDTSTSTVYMELSSLRSEDTAVYYCARDLLQFGNQYYYAMDYWGQGTLVTVSS
VL: DIVMTQTPLSLPVTPGEPASISCRSSQSLVHSNGNTYLHWYLQKPGQSPQLLIYKVSNRFSGVPDRFSGSGSGTDFTLKISRVEAEDVGVYYCSQSTHVPLTFGQGTKLEIK
notes: Made as a whole antibody of the IgG1 subtype; only variable domains are tied to it; also called 单克隆抗体S5B8h2
The molecule B4 returned an equilibrium dissociation constant (Kd) with 人CD38胞外区-His (hCD38-His) of 0.0213 nM. In addition, the binding result in assay [1] is “binds”.
